Test results from PMC4554539 (2016).
Like-named read-outs stand apart in the source and are kept apart here.

Tests used:
[1] = molecular target: T1, Na-Cl co-transporter (NCC) (Mus musculus, UniProt P59158)
T1 chain: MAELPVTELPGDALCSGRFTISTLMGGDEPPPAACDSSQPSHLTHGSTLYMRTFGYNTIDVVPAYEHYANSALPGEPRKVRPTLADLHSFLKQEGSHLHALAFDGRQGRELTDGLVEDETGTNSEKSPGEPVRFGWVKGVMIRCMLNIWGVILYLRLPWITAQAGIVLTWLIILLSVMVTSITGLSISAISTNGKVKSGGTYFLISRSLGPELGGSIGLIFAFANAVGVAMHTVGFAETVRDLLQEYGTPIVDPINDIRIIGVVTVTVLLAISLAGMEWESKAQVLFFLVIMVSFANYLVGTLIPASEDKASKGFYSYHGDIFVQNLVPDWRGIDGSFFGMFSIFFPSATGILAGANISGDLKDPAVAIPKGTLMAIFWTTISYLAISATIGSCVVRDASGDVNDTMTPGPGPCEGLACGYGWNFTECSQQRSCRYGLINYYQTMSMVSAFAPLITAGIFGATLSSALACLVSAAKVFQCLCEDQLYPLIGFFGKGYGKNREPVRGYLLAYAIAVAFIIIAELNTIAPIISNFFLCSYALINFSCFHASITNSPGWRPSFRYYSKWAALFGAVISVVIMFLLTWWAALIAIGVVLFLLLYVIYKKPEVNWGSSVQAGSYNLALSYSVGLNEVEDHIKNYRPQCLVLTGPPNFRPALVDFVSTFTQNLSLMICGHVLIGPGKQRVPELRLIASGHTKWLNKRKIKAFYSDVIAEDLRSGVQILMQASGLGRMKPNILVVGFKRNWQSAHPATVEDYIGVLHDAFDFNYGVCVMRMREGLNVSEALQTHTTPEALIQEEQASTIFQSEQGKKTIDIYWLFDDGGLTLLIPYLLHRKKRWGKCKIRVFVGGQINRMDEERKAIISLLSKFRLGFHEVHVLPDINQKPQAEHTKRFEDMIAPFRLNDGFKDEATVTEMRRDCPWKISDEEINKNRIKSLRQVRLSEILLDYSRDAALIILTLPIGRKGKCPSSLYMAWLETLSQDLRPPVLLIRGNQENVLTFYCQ

[2] = molecular target: T1, Na-Cl co-transporter (NCC); test: FITC-IL18 binding to NCC-transfected COS-7 cell membranes, Scatchard analysis

B1: IL-18 (protein)
chain: NFGRLHCTTAVIRNINDQVLFVDKRQPVFEDMTDIDQSASEPQTRLIIYMYKDSEVRGLAVTLSVKDSKMSTLSCKNKIISFEEMDPPENIDDIQSDLIFFQKRVPGHNKMEFESSLYEGHFLACQKEDDAFKLILKKKDENGDKSVMFTLTNLHQS
modifications: FITC-conjugated IL18
[1]
  Kd: 21.4 nM
[2]
  Kd: 17.3 nM
